Data taken from IntAct's records for PubMed 15105431.

B1: T-cell surface antigen CD2 (Homo sapiens), P06729 (parent)
chain: MSFPCKFVASFLLIFNVSSKGAVSKEITNALETWGALGQDINLDIPSFQMSDDIDDIKWEKTSDKKKIAQFRKEKETFKEKDTYKLFKNGTLKIKHLKTDDQDIYKVSIYDTKGKNVLEKIFDLKIQERVSKPKISWTCINTTLTCEVMNGTDPELNLYQDGKHLKLSQRVITHKWTTSLSAKFKCTAGNKVSKESSVEPVSCPEKGLDIYLIIGICGGGSLLMVFVALLVFYITKRKKQRSRRNDEELETRAHRVATEERGRKPHQIPASTPQNPATSQHPPPPPGHRSQAPSHRPPPPGHRVQHQPQKRPPAPSGTQVHQQKGPPLPRPRVQPKPPHGAAENSLSPSSN
partner: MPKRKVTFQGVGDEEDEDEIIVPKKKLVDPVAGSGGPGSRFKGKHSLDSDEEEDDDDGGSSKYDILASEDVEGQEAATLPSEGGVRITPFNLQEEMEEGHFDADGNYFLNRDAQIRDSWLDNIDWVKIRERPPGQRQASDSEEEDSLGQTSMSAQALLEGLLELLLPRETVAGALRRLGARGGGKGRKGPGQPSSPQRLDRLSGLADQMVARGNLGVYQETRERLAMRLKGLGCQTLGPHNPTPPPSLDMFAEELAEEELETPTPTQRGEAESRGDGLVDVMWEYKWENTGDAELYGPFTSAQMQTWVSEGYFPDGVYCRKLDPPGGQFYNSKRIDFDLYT

Variants of: B1
Conditions: with cd2b2_human CD2BP2, O95400

Effect of a mutation on the interaction, by site and new letter:
R303: Y disrupting interaction strength, C disrupting interaction strength, E disrupting interaction strength, G disrupting interaction strength, S disrupting interaction strength, V disrupting interaction strength, H decreasing interaction strength, Q decreasing interaction strength, D disrupting interaction strength, I decreasing interaction strength, F decreasing interaction strength, W disrupting interaction strength, A disrupting interaction strength, M decreasing interaction strength, P decreasing interaction strength, L decreasing interaction strength, T disrupting interaction strength, N decreasing interaction strength
V304: E decreasing interaction strength, D decreasing interaction strength, C decreasing interaction strength, W decreasing interaction strength
P298: N disrupting interaction strength, D disrupting interaction strength, E disrupting interaction strength, H decreasing interaction strength, M disrupting interaction strength
R296: E disrupting interaction strength, A decreasing interaction strength, L decreasing interaction strength, D disrupting interaction strength, M decreasing interaction strength, C decreasing interaction strength
G301: T disrupting interaction strength, Q decreasing interaction strength, P decreasing interaction strength, H decreasing interaction strength, M disrupting interaction strength, S decreasing interaction strength, I decreasing interaction strength, N decreasing interaction strength, F decreasing interaction strength, A disrupting interaction strength, V disrupting interaction strength, Y decreasing interaction strength, K decreasing interaction strength
H302: D decreasing interaction strength, E decreasing interaction strength
P299: V disrupting interaction strength, Q disrupting interaction strength, T disrupting interaction strength, N decreasing interaction strength, I decreasing interaction strength, D disrupting interaction strength, Y disrupting interaction strength, K decreasing interaction strength, F decreasing interaction strength, R disrupting interaction strength, L disrupting interaction strength, C decreasing interaction strength, E disrupting interaction strength, A disrupting interaction strength, H decreasing interaction strength
H295: D decreasing interaction strength, E decreasing interaction strength
P300: L decreasing interaction strength, Y decreasing interaction strength, H decreasing interaction strength, T disrupting interaction strength, N decreasing interaction strength, W decreasing interaction strength, S disrupting interaction strength, M decreasing interaction strength, F decreasing interaction strength, R decreasing interaction strength, V disrupting interaction strength, I decreasing interaction strength, E disrupting interaction strength, A disrupting interaction strength, K decreasing interaction strength, C decreasing interaction strength, Q decreasing interaction strength, D disrupting interaction strength
S294: D decreasing interaction strength, E decreasing interaction strength
